Measurements reported in paper PMC7736355.

Experiments:
[1] = molecular target: VP1 protein from GI.1 Norwalk strain (GI.1 WT) (human norovirus GI.1 Norwalk strain); assay: negative staining electron microscopy; VLP samples at ~0.1 mg/mL (0.01–0.05 mg/mL when fragments were present) in 10 mM HEPES pH 7.0, 150 mM NaCl; 0.75% uranyl formate; reference-free 2D class averages
[2] = molecular target: VP1 protein from GI.1 Norwalk strain (GI.1 WT) (human norovirus GI.1 Norwalk strain); assay: SEC; analytical size-exclusion chromatography, Superdex 200 Increase 10/300 GL in PBS, 200 µg VLPs; fractions analysed by SDS–PAGE

Substance: VP1 protein from GI.1 Norwalk strain (GI.1 WT) (natural protein)
- stoichiometry N [1]: 2
- fraction of the sample present as VP1 dimers (rest in the void peak as non-dissociated VLPs) [2]: 20%
- stoichiometry N [2]: 2
